According to patent publication US20220227870A1 (Innovent, published 2022):
Like-named read-outs stand apart in the source and are kept apart here.

Key:
[1] = target: T1, human PD-L1 expressed on the surface of cells (CHO-S-PD-L1 cells) (human, UniProt Q9NZQ7 19-290); test: FACS on CHO-S cells overexpressing human PD-L1, PE-conjugated anti-human Fc detection, MFI
T1 construct: whole, on cells; also called CHO-S cells overexpressing PD-L1; PD-L1 aAPC/CHO-K1 cells
Experimental: (§1) In short, CHO-S-PD-L1 cells were counted, and the cell suspension was diluted to 1×10⁶ cells/ml with cell medium, and then added to a U-bottom 96-well plate at 100 μl/well. The cell suspension was centrifuged at 400 g on a centrifuge for 5 minutes to remove the cell medium. […] The cell suspension was centrifuged at 400 g for 5 minutes, and then the supernatant was removed, and the cells were washed with PBS to remove the unbound antibodies. The obtained cell suspension was centrifuged at 400 g for 5 min to remove PBS. 100 μl of the solution of PE-conjugated anti-human Fc antibody (Jackson Immuno Research) diluted at a ratio of 1:200 was added to each well, and the cells were incubated in the dark on the ice for 30 min. Then the cell suspension was centrifuged at 400 g for 5 min and the supernatant was removed. The cells were washed with PBS to remove the unbound PE-conjugated anti-human Fc antibody. The cells were resuspended with 100 μl of PBS, and the binding of the antibodies to cells was assayed by FACS.

[2] = target: T2, human LAG-3 expressed on the surface of cells (293-LAG-3 cells) (human, UniProt P18627 23-525); test: FACS on HEK293 cells overexpressing human LAG-3, PE-conjugated anti-human Fc detection, MFI
T2 construct: whole, on cells; also called HEK293 cells overexpressing LAG-3; CD223
T2 sequence (looked up): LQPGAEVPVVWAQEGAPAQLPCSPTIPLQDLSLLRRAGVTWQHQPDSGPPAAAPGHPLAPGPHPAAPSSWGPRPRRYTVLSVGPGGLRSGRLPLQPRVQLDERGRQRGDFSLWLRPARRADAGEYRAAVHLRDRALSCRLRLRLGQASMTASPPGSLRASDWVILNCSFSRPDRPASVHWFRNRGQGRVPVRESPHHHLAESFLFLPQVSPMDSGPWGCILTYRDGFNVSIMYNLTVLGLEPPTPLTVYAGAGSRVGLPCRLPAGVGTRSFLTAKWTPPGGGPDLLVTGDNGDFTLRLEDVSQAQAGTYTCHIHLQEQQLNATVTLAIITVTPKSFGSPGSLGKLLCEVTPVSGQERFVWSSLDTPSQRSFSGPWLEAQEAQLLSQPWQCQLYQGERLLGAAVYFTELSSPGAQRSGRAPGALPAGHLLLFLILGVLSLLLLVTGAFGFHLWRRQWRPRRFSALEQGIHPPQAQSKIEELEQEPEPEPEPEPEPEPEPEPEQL

[3] = target: T3, human CD47 expressed on the surface of cells (CHO-S-CD47 cells) (human, UniProt Q08722 19-323); test: FACS on CHO-S cells overexpressing human CD47, PE-conjugated anti-human Fc detection, MFI
T3 construct: whole, on cells; also called CHO-S cells overexpressing CD47; CHO-CD47
Experimental: (§2) The cell suspension was centrifuged at 400 g on a centrifuge for 5 minutes to remove the cell medium. […] The cell suspension was centrifuged at 400 g for 5 minutes, and then the supernatant was removed, and the cells were washed with PBS to remove the unbound antibodies. The obtained cell suspension was centrifuged at 400 g for 5 minutes to remove PBS. 100 μL of the solution of PE-conjugated anti-human Fc antibody (Jackson Immuno Research) diluted at a ratio of 1:200 was added to each well, and the cells were incubated in the dark on the ice for 30 minutes. Then the cell suspension was centrifuged at 400 g for 5 minutes and the supernatant was removed. The cells were washed with PBS to remove the unbound PE-conjugated anti-human Fc antibody. The cells were resuspended with 100 μL of PBS, and the binding of the antibodies to cells was assayed by FACS.

[4] = target: T4, human 4-1BB expressed on the surface of cells (CHO-S-4-1BB cells) (human, UniProt Q07011 24-255); test: FACS on CHO-S cells overexpressing human 4-1BB, PE-conjugated anti-human Fc detection, MFI
T4 construct: whole, on cells; also called CHO-S cells overexpressing 4-1BB; CD137
T4 sequence (Q07011 24-255): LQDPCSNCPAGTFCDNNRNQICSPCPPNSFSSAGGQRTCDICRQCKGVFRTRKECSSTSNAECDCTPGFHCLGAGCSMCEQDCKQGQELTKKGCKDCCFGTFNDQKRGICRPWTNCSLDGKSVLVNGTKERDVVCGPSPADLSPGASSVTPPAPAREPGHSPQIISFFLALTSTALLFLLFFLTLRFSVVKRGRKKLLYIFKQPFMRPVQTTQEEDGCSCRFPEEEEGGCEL

[5] = target: T5, tumor cells H292 (ATCC), co-incubated with human red blood cells; test: flow cytometry; CFSE-labelled H292 cells co-incubated 1:20 with human red blood cells; antibody 0.014 nM
T5 construct: also called H292 cells
Experimental: (§3) The mixture was then gently added to 4 tubes each with 12.5 ml of FiColl (Thermo). The samples were centrifuged at 400 g for 30 min with zero deceleration. The upper serum and PBMC were removed to obtain red blood cells in the lowest layer.
(§4) Tumor cells H292 (ATCC) were fluorescently labeled with fluorochrome CFSE according to the instructions of CellTrace™ CFSE Cell Proliferation Kit (Invitrogen, catalog number: C34554). The labeled tumor cells were co-cultured with the aforementioned isolated human red blood cells at a ratio of 1:20 in terms of cell number, and meanwhile, tested antibody solutions of different concentrations were added. The cells were incubated at 4° C. for 30 min. […] The cells were washed at least twice with PBS and analyzed by flow cytometry.

[6] = target: T3, human CD47 expressed on the surface of …; test: FACS on CHO-S cells overexpressing human CD47; antibody sample after 30 days at 40 C
Experimental: as §2

[7] = target: T5, tumor cells H292 (ATCC), co-incubated …; test: flow cytometry; CFSE-labelled H292 cells co-incubated 1:20 with human red blood cells; antibody 0.370 nM
Experimental: as §3, §4

[8] = target: T5, tumor cells H292 (ATCC), co-incubated …; test: flow cytometry; CFSE-labelled H292 cells co-incubated 1:20 with human red blood cells; antibody 0.123 nM
Experimental: as §4

[9] = target: T5, tumor cells H292 (ATCC), co-incubated …; test: flow cytometry; CFSE-labelled H292 cells co-incubated 1:20 with human red blood cells; antibody 0.041 nM
Experimental: as §4

h CD47 (Acrobiosystems) = target: T6, h CD47 (Acrobiosystems) (human, UniProt Q08722 19-139); test: ForteBio Octet BLI; antibody loaded on AHC sensor, h CD47 100 nM in solution
T6 construct: Bought soluble antigen; also called CD47 protein in solution
Experimental: The anti-human IgG Fc biosensor AHC was immersed in each well containing the antibody solution, and immersed at room temperature for 600 seconds to load the samples. The sensor was then washed in SD buffer until it returned to the baseline, and then immersed in a well containing 100 μL of the antigen solution to monitor the association of the antibody with the antigen. The sensor was then transferred to a well containing 100 ul of SD buffer to monitor the antibody dissociation. The rotation speed was 400 rpm and the temperature was 30° C. The background-corrected association and dissociation curves were plotted by the Octet analysis software (ForteBio) to generate the association (k_{∞}) rate constant and dissociation (kdis) rate constant, which are then used to calculate the equilibrium dissociation constant (KD).

[10] = target: T5, tumor cells H292 (ATCC), co-incubated …; test: flow cytometry; CFSE-labelled H292 cells co-incubated 1:20 with human red blood cells; antibody 1.111 nM
Experimental: as §4

[11] = target: T3, human CD47 expressed on the surface of …; test: FACS on CHO-S cells overexpressing human CD47; antibody sample of day 0
[12] = target: T5, tumor cells H292 (ATCC), co-incubated …; test: flow cytometry; CFSE-labelled H292 cells co-incubated 1:20 with human red blood cells; antibody 10.000 nM
Experimental: as §3, §4

[13] = target: T5, tumor cells H292 (ATCC), co-incubated …; test: flow cytometry; CFSE-labelled H292 cells co-incubated 1:20 with human red blood cells; antibody 3.333 nM
Experimental: as §3, §4

[14] = target: T1, human PD-L1 expressed on the surface of …; test: FACS on CHO-S cells overexpressing human PD-L1, PE-conjugated anti-human Fc detection, MFI; remark: listed apart in the source
Experimental: as §1

T1 sequence (Q9NZQ7 19-290): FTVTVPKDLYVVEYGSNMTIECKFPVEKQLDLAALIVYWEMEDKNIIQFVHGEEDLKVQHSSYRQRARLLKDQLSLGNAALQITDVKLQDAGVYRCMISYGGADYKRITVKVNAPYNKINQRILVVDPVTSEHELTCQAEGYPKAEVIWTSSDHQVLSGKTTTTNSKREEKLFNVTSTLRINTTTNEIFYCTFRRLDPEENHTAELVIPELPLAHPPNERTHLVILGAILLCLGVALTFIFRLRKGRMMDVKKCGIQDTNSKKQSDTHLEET

B1: anti-LAG-3/PD-L1 bispecific antibody Kh2NF-PL (bispecific antibody, human IgG1, kappa, L234A L235A)
heavy: not shown
light: not shown
chain: QVQLQESGGGLVQPGGSLRLSCAASAYTISRNSMGWFRQAPGKGLEGVAAIESDGSTSYSDSVKGRFTISLDNSKNTLYLEMNSLRAEDTAVYYCAAPKVGLGPRTALGHLAFMTLPALNYWGQGTLVTVSSQVQLQESGGGLVQPGGSLRLSCAASAYTISRNSMGWFRQAPGKGLEGVAAIESDGSTSYSDSVKGRFTISLDNSKNTLYLEMNSLRAEDTAVYYCAAPKVGLGPRTALGHLAFMTLPALNYWGQGTLVTVSSDKTHTCPPCPAPEAAGGPSVFLFPPKPKDTLMISRTPEVTCVVVDVSHEDPEVKFNWYVDGVEVHNAKTKPREEQYNSTYRVVSVLTVLHQDWLNGKEYKCKVSNKALPAPIEKTISKAKGQPREPQVCTLPPSRDELTKNQVSLSCAVKGFYPSDIAVEWESNGQPENNYKTTPPVLDSDGSFFLVSKLTVDKSRWQQGNVFSCSVMHEALHNHYTQKSLSLSPG
notes: Triple-chain antibody; Fc with LALA and knob-in-hole mutations
- EC50 (read off the curve) [1]: ~1 nM
- EC50 (read off the curve) [2]: ~1 nM

B2: IgG1 Control (antibody, V domains shown)
VH: EVRLLESGGGLVQPGGSLRLSCAASGFTFSNYAMGWVRQAPGKGLEWVSAISGSGGSTYYADSVKGRFTTSRDDSKNALYLQMNSLRAEDTAVYYCARGGPGWYAADVWGQGTTVTVSS
VL: DIQMTQSPSSLSASVGDRVTITCRASQSISSYLNWYQQKPGKAPKLLIYAASSLQSGVPSRFSGSGSGTDFTLTISSLQPEDFATYYCQQADLPAFAFGGGTKVEIKR
notes: also called IgG1 negative control antibody
- binding result [3]: no binding (tested: about 300 nM)

B3: anti-LAG-3 antibody ADI-31853 (antibody, V domains shown)
VH: QLQLQESGPGLVKPSETLSLTCTVSGGSIYSESYYWGWIRQPPGKGLEWIGSIVYSGYTYYNPSLKSRVTISVDTSKNQFSLKLSSVTAADTAVYYCARVRTWDAAFDIWGQGTMVTVSS
VL: DIQMTQSPSSLSASVGDRVTITCQASQDISNYLNWYQQKPGKAPKLLIYDASNLETGVPSRFSGSGSGTDFTFTISSLQPEDIATYYCQQVLELPPWTFGGGTKVEIK
notes: also called parent antibody (anti-LAG-3)
- EC50 (read off the curve) [2]: ~0.5 nM

B4: anti-4-1BB antibody BMS-663513 (antibody, V domains shown)
VH: QVQLQQWGAGLLKPSETLSLTCAVYGGSFSGYYWSWIRQSPEKGLEWIGEINHGGYVTYNPSLESRVTISVDTSKNQFSLKLSSVTAADTAVYYCARDYGPGNYDWYFDLWGRGTLVTVSS
VL: EIVLTQSPATLSLSPGERATLSCRASQSVSSYLAWYQQKPGQAPRLLIYDASNRATGIPARFSGSGSGTDFTLTISSLEPEDFAVYYCQQRSNWPPALTFGGGTKVEIK
notes: also called parent antibody (anti-4-1BB)
- EC50 (read off the curve) [4]: ~1 nM

B5: anti-CD47/PD-L1 bispecific antibody Kh2NF-PC (bispecific antibody, human IgG1, kappa, L234A L235A)
heavy: not shown
light: DIQMTQSPSSVSASVGDRVTITCRASQGISRWLAWYQQKPGKAPKLLIYAASSLQSGVPSRFSGSGSGTDFTLTISSLQPEDFATYYCQQTVSFPITFGGGTKVEIKRTVAAPSVFIFPPSDEQLKSGTASVVCLLNNFYPREAKVQWKVDNALQSGNSQESVTEQDSKDSTYSLSSTLTLSKADYEKHKVYACEVTHQGLSSPVTKSFNRGEC
chain: QVQLQESGGGLVQPGGSLRLSCAASAYTISRNSMGWFRQAPGKGLEGVAAIESDGSTSYSDSVKGRFTISLDNSKNTLYLEMNSLRAEDTAVYYCAAPKVGLGPRTALGHLAFMTLPALNYWGQGTLVTVSSGGGGSGGGGSGGGGSGGGGSQVQLQESGGGLVQPGGSLRLSCAASAYTISRNSMGWFRQAPGKGLEGVAAIESDGSTSYSDSVKGRFTISLDNSKNTLYLEMNSLRAEDTAVYYCAAPKVGLGPRTALGHLAFMTLPALNYWGQGTLVTVSSDKTHTCPPCPAPEAAGGPSVFLFPPKPKDTLMISRTPEVTCVVVDVSHEDPEVKFNWYVDGVEVHNAKTKPREEQYNSTYRVVSVLTVLHQDWLNGKEYKCKVSNKALPAPIEKTISKAKGQPREPQVCTLPPSRDELTKNQVSLSCAVKGFYPSDIAVEWESNGQPENNYKTTPPVLDSDGSFFLVSKLTVDKSRWQQGNVFSCSVMHEALHNHYTQKSLSLSPG
notes: Triple-chain antibody (1+2 format)
- proportion of antibody binding to H292 cells [5]: 14.9%
- EC50 (read off the curve) [6]: ~3 nM
- proportion of antibody binding to H292 cells [7]: 44.5%
- proportion of antibody binding to H292 cells [8]: 88.5%
- proportion of antibody binding to H292 cells [9]: 82%
- Kd (h CD47 (Acrobiosystems)): 1.31 nM
- koff (h CD47 (Acrobiosystems)): 0.00155 s⁻¹
- kon (h CD47 (Acrobiosystems)): 1.18e+06 M⁻¹ s⁻¹
- proportion of antibody binding to H292 cells [10]: 23%
- EC50 (read off the curve) [3]: ~2 nM
- EC50 (read off the curve) [11]: ~2 nM
- proportion of antibody binding to H292 cells [12]: 12.5%
- proportion of antibody binding to H292 cells [13]: 12.1%

B6: anti-4-1BB/PD-L1 bispecific antibody Kh2NF-P4 (bispecific antibody, human IgG1, kappa, L234A L235A)
heavy: not shown
light: not shown
chain: QVQLQESGGGLVQPGGSLRLSCAASAYTISRNSMGWFRQAPGKGLEGVAAIESDGSTSYSDSVKGRFTISLDNSKNTLYLEMNSLRAEDTAVYYCAAPKVGLGPRTALGHLAFMTLPALNYWGQGTLVTVSSGGGGSGGGGSGGGGSGGGGSQVQLQESGGGLVQPGGSLRLSCAASAYTISRNSMGWFRQAPGKGLEGVAAIESDGSTSYSDSVKGRFTISLDNSKNTLYLEMNSLRAEDTAVYYCAAPKVGLGPRTALGHLAFMTLPALNYWGQGTLVTVSSDKTHTCPPCPAPEAAGGPSVFLFPPKPKDTLMISRTPEVTCVVVDVSHEDPEVKFNWYVDGVEVHNAKTKPREEQYNSTYRVVSVLTVLHQDWLNGKEYKCKVSNKALPAPIEKTISKAKGQPREPQVCTLPPSRDELTKNQVSLSCAVKGFYPSDIAVEWESNGQPENNYKTTPPVLDSDGSFFLVSKLTVDKSRWQQGNVFSCSVMHEALHNHYTQKSLSLSPG
notes: as for B1
- EC50 (read off the curve) [14]: ~2 nM
- EC50 (read off the curve) [4]: ~5 nM

B7: anti-CD47/PD-L1 bispecific antibody Kh2NF-PC-NL (bispecific antibody, human IgG1, kappa, L234A L235A)
heavy: not shown
light: DIQMTQSPSSVSASVGDRVTITCRASQGISRWLAWYQQKPGKAPKLLIYAASSLQSGVPSRFSGSGSGTDFTLTISSLQPEDFATYYCQQTVSFPITFGGGTKVEIKRTVAAPSVFIFPPSDEQLKSGTASVVCLLNNFYPREAKVQWKVDNALQSGNSQESVTEQDSKDSTYSLSSTLTLSKADYEKHKVYACEVTHQGLSSPVTKSFNRGEC
chain: QVQLQESGGGLVQPGGSLRLSCAASAYTISRNSMGWFRQAPGKGLEGVAAIESDGSTSYSDSVKGRFTISLDNSKNTLYLEMNSLRAEDTAVYYCAAPKVGLGPRTALGHLAFMTLPALNYWGQGTLVTVSSQVQLQESGGGLVQPGGSLRLSCAASAYTISRNSMGWFRQAPGKGLEGVAAIESDGSTSYSDSVKGRFTISLDNSKNTLYLEMNSLRAEDTAVYYCAAPKVGLGPRTALGHLAFMTLPALNYWGQGTLVTVSSDKTHTCPPCPAPEAAGGPSVFLFPPKPKDTLMISRTPEVTCVVVDVSHEDPEVKFNWYVDGVEVHNAKTKPREEQYNSTYRVVSVLTVLHQDWLNGKEYKCKVSNKALPAPIEKTISKAKGQPREPQVCTLPPSRDELTKNQVSLSCAVKGFYPSDIAVEWESNGQPENNYKTTPPVLDSDGSFFLVSKLTVDKSRWQQGNVFSCSVMHEALHNHYTQKSLSLSPG
notes: Triple-chain antibody without a linker between the two VHH; Fc with LALA and knob-in-hole mutations
- proportion of antibody binding to H292 cells [5]: 1.41%
- proportion of antibody binding to H292 cells [7]: 61.6%
- proportion of antibody binding to H292 cells [8]: 83.2%
- proportion of antibody binding to H292 cells [9]: 46.3%
- Kd (h CD47 (Acrobiosystems)): 1.07 nM
- koff (h CD47 (Acrobiosystems)): 0.00128 s⁻¹
- kon (h CD47 (Acrobiosystems)): 1.19e+06 M⁻¹ s⁻¹
- proportion of antibody binding to H292 cells [10]: 41%
- EC50 (read off the curve) [3]: ~2 nM
- EC50 (read off the curve) [11]: ~3 nM
- proportion of antibody binding to H292 cells [12]: 11.3%
- proportion of antibody binding to H292 cells [13]: 13.2%
